Laboratory results taken from patent US20220396618A1 (RESEARCH FOUNDATION FOR THE STATE UNIVERSITY OF NEW YORK, published 2022).

Key:
[1] = biological target: T1, human RAGE extracellular domain (human, UniProt Q15109 23-342); experiment: ELISA, apparent Kd
T1 construct: extracellular domain; Immobilized on ELISA plates; also called WT human RAGE

murine RAGE = murine RAGE (murine, UniProt Q62151 23-231, limits assumed); experiment: ELISA, apparent Kd
murine RAGE V-C1 domain = biological target: T2, murine RAGE V-C1 domain (murine, UniProt Q62151 23-231, limits assumed); experiment: ELISA, apparent Kd
T2 construct: domain: V-C1 domain; Used as the immunogen and as the ELISA antigen; also called mVC1; WT mVC1

[2] = biological target: T3, human RAGE R216A-R218A mutant (human, UniProt Q15109 23-342); experiment: ELISA on immobilized antigen
T3 construct: extracellular domain; Mutant of the human RAGE extracellular domain, immobilized for ELISA
Method: As shown in the dashed oval, the epitope of B2 mAb includes R216 and R218. Panel B depicts the binding of B2 mAbs to immobilized WT human RAGE or the R216A-R218A mutant as determined by ELISA. The binding of B2 mAbs to R216A-R218A was reduced by 40-fold.
200 ng of human RAGE extracellular domain or R216A-R218A mutant were immobilized onto 96-well high-binding ELISA plate. Plates were blocked with 5% BSA in PBS and incubated with 0.01 to 10 nM of rabbit B2 mAb for 1 hour at room temperature. Bound B2 mAbs were quantitated with anti-rabbit-HRP (Jackson Immunology) followed by the addition of HRP substrate (Thermo Scientific).

T3 sequence (Q15109 23-342 R216A/R218A): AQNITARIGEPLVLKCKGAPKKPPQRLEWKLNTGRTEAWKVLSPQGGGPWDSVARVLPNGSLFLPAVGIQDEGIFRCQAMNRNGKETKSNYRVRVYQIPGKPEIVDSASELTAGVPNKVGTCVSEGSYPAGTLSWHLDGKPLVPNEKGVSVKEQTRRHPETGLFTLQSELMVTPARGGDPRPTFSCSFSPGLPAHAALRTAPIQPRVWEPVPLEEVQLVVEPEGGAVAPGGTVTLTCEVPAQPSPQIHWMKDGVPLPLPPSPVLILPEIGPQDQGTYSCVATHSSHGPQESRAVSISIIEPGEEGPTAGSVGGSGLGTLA
Chain of murine RAGE (Q62151 23-231 limits assumed): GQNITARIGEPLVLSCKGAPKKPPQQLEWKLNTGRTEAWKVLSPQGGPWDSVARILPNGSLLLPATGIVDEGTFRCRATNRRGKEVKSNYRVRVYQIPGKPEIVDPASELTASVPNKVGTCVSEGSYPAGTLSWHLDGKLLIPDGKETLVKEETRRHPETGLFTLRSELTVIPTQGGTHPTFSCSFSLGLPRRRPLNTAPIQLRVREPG
T2 sequence (Q62151 23-231 limits assumed): as above
T1 sequence (Q15109 23-342): as the sequence (Q15109 23-342 R216A/R218A) above, with A194R, A196R counted along it

- Kd [1]: 0.08 nM
- Kd (murine RAGE): 0.03 nM
- Kd (murine RAGE V-C1 domain): 0.08 nM
- fold reduction of binding against WT human RAGE [2]: 40 fold
B1: rabbit B2 mAb (antibody, V domains shown)
VH: QSVKESEGGLFKPTDTLTLTCTVSGFTISSYDMSWVRQAPGKGLEWIGAIDSSGSAHYASWARSRSTITRNTNLNTVTLKMTSLTAADTATYFCWNANIWGPGTLVTVSS
VL: AQVLTQTASPVSAAVGSTVTINCQASQNVYDNNHLSWYQQKRGQPPKLLIYYASALASGVSSRFKGSGSGTQFTLTINDVQCDDAATYYCLGSYDCSADCFAFGGGTEVVV
notes: Rabbit monoclonal antibody from a hybridoma; also called B2 mAbs; rabbit mAb B2
